In article PMC5439444 (Vascular pharmacology, 2016):

Target: GST fusion protein of human full-length (FL) Pin1 (residues 1-163) (human, UniProt Q13526 1-163)
Assay: pull-down

GST fusion protein of human full-length (FL) Pin1 (residues 1-163), sequence (Q13526 whole entry, the tested form may be a part): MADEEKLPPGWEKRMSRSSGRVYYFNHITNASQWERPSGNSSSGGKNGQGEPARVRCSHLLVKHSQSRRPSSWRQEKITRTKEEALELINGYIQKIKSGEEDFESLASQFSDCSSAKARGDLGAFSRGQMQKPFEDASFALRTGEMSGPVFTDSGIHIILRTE

B1: bovine phospho-mimetic S116D endothelial nitric oxide synthase (eNOS) (enzyme, UniProt P29473 1-1205, looked up)
chain: MGNLKSVGQEPGPPCGLGLGLGLGLCGKQGPASPAPEPSRAPAPATPHAPDHSPAPNSPTLTRPPEGPKFPRVKNWELGSITYDTLCAQSQQDGPCTPRCCLGSLVLPRKLQTRPDPGPPPAEQLLSQARDFINQYYSSIKRSGSQAHEERLQEVEAEVASTGTYHLRESELVFGAKQAWRNAPRCVGRIQWGKLQVFDARDCSSAQEMFTYICNHIKYATNRGNLRSAITVFPQRAPGRGDFRIWNSQLVRYAGYRQQDGSVRGDPANVEITELCIQHGWTPGNGRFDVLPLLLQAPDEAPELFVLPPELVLEVPLEHPTLEWFAALGLRWYALPAVSNMLLEIGGLEFSAAPFSGWYMSTEIGTRNLCDPHRYNILEDVAVCMDLDTRTTSSLWKDKAAVEINLAVLHSFQLAKVTIVDHHAATVSFMKHLDNEQKARGGCPADWAWIVPPISGSLTPVFHQEMVNYILSPAFRYQPDPWKGSATKGAGITRKKTFKEVANAVKISASLMGTLMAKRVKATILYASETGRAQSYAQQLGRLFRKAFDPRVLCMDEYDVVSLEHEALVLVVTSTFGNGDPPENGESFAAALMEMSGPYNSSPRPEQHKSYKIRFNSVSCSDPLVSSWRRKRKESSNTDSAGALGTLRFCVFGLGSRAYPHFCAFARAVDTRLEELGGERLLQLGQGDELCGQEEAFRGWAKAAFQASCETFCVGEEAKAAAQDIFSPKRSWKRQRYRLSTQAEGLQLLPGLIHVHRRKMFQATVLSVENLQSSKSTRATILVRLDTAGQEGLQYQPGDHIGICPPNRPGLVEALLSRVEDPPPPTESVAVEQLEKGSPGGPPPSWVRDPRLPPCTLRQALTFFLDITSPPSPRLLRLLSTLAEEPSEQQELETLSQDPRRYEEWKWFRCPTLLEVLEQFPSVALPAPLLLTQLPLLQPRYYSVSSAPNAHPGEVHLTVAVLAYRTQDGLGPLHYGVCSTWLSQLKTGDPVPCFIRGAPSFRLPPDPYVPCILVGPGTGIAPFRGFWQERLHDIESKGLQPAPMTLVFGCRCSQLDHLYRDEVQDAQERGVFGRVLTAFSREPDSPKTYVQDILRTELAAEVHRVLCLERGHMFVCGDVTMATSVLQTVQRILATEGDMELDEAGDVIGVLRDQQRYHEDIFGLTLRTQEVTSRIRTQSFSLQERHLRGAVPWAFDPPGPDTPGP
  amount bound relative to WT eNOS: > 2 fold
